# Like-named read-outs stand apart in the source and are kept apart here.
# Biological target: FhaA C-terminal FHA domain (UniProt P71590)
substance,measurement,setting,value
CwlM 378-392 (from UniProt L7N653),binding against the reference,sites T382,gained
same,binding against the reference,sites T386,gained

# From PMC6180346, “Two Faces of CwlM, an Essential PknB Substrate, in Mycobacterium tuberculosis” (Cell Reports, 2018)
